Data taken from the DeepSol protein solubility set.

experiment: soluble on expression in E. coli; label from the status in PepcDB or PDB records

| Sequence | soluble on expression in E. coli |
| --- | --- |
| SMFEIKKICCIGAGYVGGPTCSVIAHMCPEIRVTVVDVNESRINAWNSPTLPIYEPGLKEVVESCRGKNLFFSTNIDDAIKEADLVFISVNTPTKTYGMGKGRAADLKYIEACARRIVQNSNGYKIVTEKSAVPVRAAESIRRIFDANTKPNLNLQVLSNPEFLAEGTAIKDLKNPDRVLIGGDETPEGQRAVQALCAVYEHWVPREKILTTNTWSSELSKLAANAFLAQRISSINSISALCEATGADVEEVATAIGMDQRIGNKFLKASVGFGGSCFQKDVLNLVYLCEALNLPEVARYWQQVIDMNDYQRRRFASRIIDSLFNTVTDKKIAILGFAFKKDTGDTRESSSIYISKYLMDEGAHLHIYDPKVPREQIVVDLSHPGVSEDDQVSRLVTISKDPYEACDGAHAVVICTEWDMFKELDYERIHKKMLKPAFIFDGRRVLDGLHNELQTIGFQIETIGKKV | soluble |
| MGCAVSQESAIATVSSSSNTATTSTSSSNTSQKWATSRTSRPVTNVTQVSAIHTTSMDSGSSTVQLPSPRGSLTTAVSTSSSGAQRQMSANSERSLHTRPLSETAVILQSQAVKMSTGAGDSAVYEAVERGSLYSLDYRVYIKGPQGIVSPWHDIPLFANKDKRVYNMIVEIPRWTNAKMEMATKEPFSPIKQDEKKGVARFVHNIFPHKGYIWNYGALPQTWEDPNHVVPDTGAKGDNDPIDVIEVGSKVAGRGAVLQVKVLGTLALIDEGETDWKLVAIDVNDENADKLNDIDDVEKVYPGLLAASVEWFRNYKIPAGKPANEFAFNGEFKNREYAEKVIDETNEYWKTLIKEANPSLNTVSRVPEAVHQGTDEAAATAIGATPEHGANAPLPGDVDKWHFVQG | not soluble |
| MMKTRGFELITDYTDENLLPKRETAHAAGYDLKVAERTEISAGAIVLVPTGVKAYMQVGEVLYLFDRSSNPRKKGLVLINSVGVIDGDYYNNPNNEGHIFAQMKNMTDQTVVLEAGERVVQGVFMPFLLIDGDKATGTRTGGFGSTGG | soluble |
| MSLGTLKLFNIGNMVTYSMNESSMISSKGMEILISDGKIIEIGPKVGDADQLFDCENKLVTPGFVDCHTHPVFLDGRENEFEMRLKGFSYEEIANEGGGIKNSVKSVRNSSEVELYNRVISRMDKFLKLGTTTIEAKSGYGLDINSELKSLKVIHEVNLAHQIDILPTFMGAHAVPNEYADDIDSYVDLICDSMIPQVAEQGIAIFNDVFCEKGYFNLKQSERILKKGLDYGLLPRIHSDEFNNLGASKLAGKLNLISADHLMKIEKDDIEIMADSNTKAVLLPGTTFFLGHSNYAPYHKLKEAGIEVAIASDYNPEGHHHHHH | soluble |
| GSHMASPTPAPSQSPIRRDAFSIIEAEEYNSTNSSTLQVIGTPNNGRGIGYIENGNTVTYSNIDFGSGATGFSATVATEVNTSIQIRSDSPTGTLLGTLYVSSTGSWNTYNTVSTNISKITGVHDIVLVFSGPVNVDNFIFSRSS | soluble |
| MGSDKIHHHHHHMQANKNIQKLTPYLSIPHKIWNSSQSNILKLDWNEATIPPSPYVIESIKKFLVNGNLNWYPNTKNLYLLDKIAEYTKQINSSFVELFEGSDSAHECIIDVFLDKCDKIGIVSPTYDNFRSRANGVGIETISFTLDDNFNLDFDSLEYFIHEKRIKLLYLCNPNNPTGKSYNIQKIKSLIINNPNVMFIIDEAYYEFTSQSVCDLVEQCNNLIITRTFSKAFALASFRIGYIISHPENIESINKLRNPKSVPMLSQIAANAALEDLQYMRDYVDEVSCARMEFVKFLNTLTTGGGGIFNDSVANFVLIQNENISLFVGFLEKEGIFIRNYSHLISKNCRISIGTRNQMSYVAEKIQEFAKKQGGFHLV | not soluble |
| AMAELKEFLNKPAATSDVPPAPAGFDFDAAKKLVDVRCNKCHTLDSVADLFRTKYKKTGQVNLIVKRMQGFPGSGISDDDAKTIGIWLHEKF | soluble |
| MAHHHHHHMGTLEAQTQGPGSMKGEPKVIERLNEALFLELGAVNQYWLHYRLLNDWGYTRLAKKEREESIEEMHHADKLIDRIIFLEGFPNLQTVSPLRIGQNVKEVLEADLKGEYDARASYKESREICDKLGDYVSKQLFDELLADEEGHIDFLETQLDLLAKIGGERYGQLNAAPADEAE | soluble |
| MGSDKIHHHHHHDSFLDEKMYSSYGPEVSDVNAKLVGLHRQYAAIWGMSSQQGFVGCWQVGTDVGAPGDTQGVEVPFYRYQELNAENAGVSFLWEKLYELINSANQIIASQAEGGDAAATAEAMFFRAYAYNMLVTLWGDVPLVTESTSIPRTDYTRNAVAEVDGVIDSDLVYAMSNLPVVGAAKNESRINQDMARQLAGEAYLRMGMRDASYFKKAEDAVTPIITGGKYELISARYGKYAAEPGDYYHDMFRWGNQRRSQGNMEAIWTFEMEYNRDVNGGTIDNPQQRRNWVPAFHKLDGMVNADSIGGRGNGRLRISNFVKYGLYEKGDIRNSNYNIRRVMWYNKPGFSKEVGIDAKGFLVDKDKGIRNVTLKTGDQVIPHEGDSLNVFYPHPTKWGAYDETDDFGYAVVKDWPVMRLGETYLLRAEARFRQGNTQGAADDINVLRDRAFKDYRAVAPGAGKVTADQIDIDFILDERARELISEENRRMTLVRTNTLAERIKLNGDMEPAAPSNKVITGFDANIHTLLPIPLTEIQLNKDGDLKQNPGY | not soluble |
| MSLTAQIRLAEPADLNDDTLRARAVAAARGDQRFDVLITGGTLVDVVTGELRPADIGIVGALIASVHEPASRRDAAQVIDAGGAYVSPGLIDTHMHIESSMITPAAYAAAVVARGVTTIVWDPHEFGNVHGVDGVRWAAKAIENLPLRAILLAPSCVPSAPGLERGGADFDAAILADLLSWPEIGGIAEIMNMRGVIERDPRMSGIVQAGLAAEKLVCGHARGLKNADLNAFMAAGVSSDHELVSGEDLMAKLRAGLTIELRGSHDHLLPEFVAALNTLGHLPQTVTLCTDDVFPDDLLQGGGLDDVVRRLVRYGLKPEWALRAATLNAAQRLGRSDLGLIAAGRRADIVVFEDLNGFSARHVLASGRAVAEGGRMLVDIPTCDTTVLKGSMKLPLRMANDFLVKSQGAKVRLATIDRPRFTQWGETEADVKDGFVVPPEGATMISVTHRHGMAEPTTKTGFLTGWGRWNGAFATTVSHDSHNLTVFGGNAGDMALAANAVIGTGGGMAVASEGKVTAILPLPLSGLVSDAPLEEVARAFEDLREAVGKVVEWQPPYLVFKACFGATLACNIGPHQTDMGIADVLTGKVMESPVIEVLGEGHHHHHH | soluble |
| MRTIYVIGIGTGSPEFLTLQAISGLRHAQAIVALDKGEQKSDLLALRQKIVDTHAPGTPIYAVTDPERDRNPDNYEEEVRRWHAERAHLLASTIRERTPDDGAVAFLVWGDPSLYDSTLRIIEHMRNLEDLHADVKVIPGITAVQVLTAEHGILINRIGEAIHITTGRNLPETSAKDRRNCVVMLDGKTAWQDVATEHTYMWWGAFLGTEQQVLRKGYVHEIGAQVAELKQQLRTEHGWIMDTYLLRELD | soluble |
| MGSDKIHHHHHHGQNVHPNLPWIDISGQRERQVTIAPGRPDLYNGHPTTVMMDDHKTILCTWSYGHGGKASFIAESKDAGLTWKNGKTPADWQTMSNCPSIYKLTDKQGKERVFVFSAWPDMPMTYSEDGGKSWSPVRSLNKPCVMAFSSIVKLKNGDYLGLYHRGLNDRDRPPLTLWQSVSHDGGLTWSESVKVGEMEGRSPCEPCVFRAPDGKRLVCVARENNRVGNSLMMFSDDEGTTWSPLQKTPWGLTGDRHVIKFTPDGRMIAVFRDMAPNSPTKGHFVAWVGNYKDLLEGTSGQYKIKLLHSYAGSDCGYPGLEILPDGTIVAITYVKMRPGPEQHSIVGVRFKLEETDKMLY | not soluble |
| MAIFHLDFKIVKRSEGKSSVAKAAYHARCKITDERTGDTYDYSRRDDLYGHFILAPANAPEHIVKDSTSLWNEVERVERQNNGQTARYFDVSIPTELNNDEKKKLVLEYCQKNFVDKGMIADIAFHDLDSDNPHAHVMLTLKTIGPEGFGKKERSWNDRKMSVLWRESWASMANSYLATAGSSERIDHRSLQAQHEEALEKAAVALDNEEKALWLAKAAETNRPPMKRIHSAKWRSKAAQEQRAAEQTVRDAAKLEAVEVYKTFSELDLEIVVDVRSFTISVLPKPEEIVIPDFSTREKHQSIVSPVTSRRPAVKSYRAPNKATKVGMRGEGTPVLVAPEPNKSTKLKTSSSKKTRAMNRAPMHSRKQVKPHQNGLFKRLTTYMVCLFKEKFIWSKKKPIPVDAEHDKRIADNYVFDEIQGIYVSRAEYERRARFNNGTYSPAPDEVRRFPHRTKEEQHKVDDEPDYDPSSTPVPIISRKHLSLKPLEHHHHHH | not soluble |
| MEFSVKSGSPEKQRSACIVVGVFEPRRLSPIAEQLDKISDGYISALLRRGELEGKPGQTLLLHHVPNVLSERILLIGCGKERELDERQYKQVIQKTINTLNDTGSMEAVCFLTELHVKGRNNYWKVRQAVETAKETLYSFDQLKTNKSEPRRPLRKMVFNVPTRRELTSGERAIQHGLAIAAGIKAAKDLGNMPPNICNAAYLASQARQLADSYSKNVITRVIGEQQMKELGMHSYLAVGQGSQNESLMSVIEYKGNASEDARPIVLVGKGLTFDSGGISIKPSEGMDEMKYDMCGAAAVYGVMRMVAELQLPINVIGVLAGCENMPGGRAYRPGDVLTTMSGQTVEVLNTDAEGRLVLCDVLTYVERFEPEAVIDVATLTGACVIALGHHITGLMANHNPLAHELIAASEQSGDRAWRLPLGDEYQEQLESNFADMANIGGRPGGAITAGCFLSRFTRKYNWAHLDIAGTAWRSGKAKGATGRPVALLAQFLLNRAGFNGEE | soluble |
| MLCDSLPTASRTAAAILNLAQREDVTAEALAQLIQTDPALTGRILRFANAPAQGTRRPVASVIDAIDLVGLPAVRQFALSLSLIDAHREGRCEAFDYAAYWQKSLARAVALQSITAQASTVAPKEAFTLGLLADVGRLALATAWPEEYSECLRKADGEALIALERERFATDHDELTRMLLTDWGFPQVFIDALQLSQQDEIRDEGRTGRFARQLALAQHIADHRLAEEPRRAALSPLLRAEARRCGLGDEDLARLLADPPADWLDWTRTIGLPGDAPTGGAEPSRPPPQTDEKLHVLLADDDPIMLARLSRQLEADGHHVASRRDGETALAYALEHQPEMVITDWHMKPMNGLELCRALRESALGGNVYIVMLTASESEDALVEAFGAGIDDYVIKPPSVRVLKARIRAGQRIITLHKKLARERKEIERYSSELAAANRRLELMAHTDQLTGLPNRRYAMDRLEREWAQARTFDRPLSIMMLDLDWFKSINDSLGHDAGDQALVHAARVMRETVRTSDVVCRMGGEEFLIIIPDTAGPAAIQTAERVRSAVEQQQPAKLKLSRPLTASIGVADSTSAPSLKDLLLKADNALYQVKQNGRNGVRYAGLAAALEHHHHHH | soluble |
| MLTYETWEENETKGALSVLSWAYKEYKSEIVYACSFGVEGMVLLDLINQVNPSAKVVFLDTNVHFQETYELIQKVRERFPSLNIIEKQPKLTLDEQDKLHGDKLWESNPNLCCKIRKILPLEESLANEKAWISGLRREQSETRKHTKFINQDHRFQSIKVCPLIHWTWKEVWRYVYKHSLPYNSLHDIGYPSIGCEKCTLPVGEGGDSRDGRWAGKVKTECGLHYQ | not soluble |
| MGHHHHHHSHMASATQSVSRLQSIVAGLKNAPSDQLINIFESCVRNPVENIMKILKGIGETFCQHYTQSTDEQPGSHIDFAVNRLKLAEILYYKILETVMVQETRRLHGMDMSVLLEQDIFHRSLMACCLEIVLFAYSSPRTFPWIIEVLNLQPFYFYKVIEVVIRSEEGLSRDMVKHLNSIEEQILESLAWSHDS | not soluble |
| DGSCTNTNSQLSANSKCEKSTLTNCYVDKSEVYGTTCTGSRFDGVTITTSTSTGSRISGPGCKISTCIITGGVPAPSAACKISGCTFSAN | soluble |
| MGHHHHHHSHSQIQGVQTNDDLNNDSDDSSDNCVIVGFVKPLAERTPELVELSSDSEDLGSYEKMETVKTQEQEQSYSSGDSDVSRCSSPHSVLGKDEQINKGHCDSSTRIKSKKEEKRSTSLSSPRNLNSSVRGDRVYSPYNHRHRKRGRSRSSDSRSQSRSGHDQKNHRKHHGKKRMKSKRSRSRESSRPRGRRDKKRSRTRDSSWSRRSQTLSLSSESTSRSRSRSSDHGKRRSRSRNRDRYYLRNNYGSRYKWEY | not soluble |
